In doi:10.1101/2024.07.29.605519:

What was measured:
[1] = target: SCRM KiDoK peptide (Arabidopsis); experiment: ITC; Malvern PEAQ-ITC, 25 °C, PBS pH 7.4 with 2% DMSO; SCRM KiDoK peptide with MPK6ΔNt (29–305); without kC9
[2] = target: SCRM KiDoK peptide (Arabidopsis); experiment: BLI; as a1, but MPK6 pre-incubated with the small molecule kC9 (MPK6:kC9 1:1.5 in the methods, 1:2 in the legend) as analyte
[3] = target: SCRM KiDoK peptide (Arabidopsis); experiment: ITC; as a3, but MPK6ΔNt (29–305) pre-incubated with the small molecule kC9
[4] = target: SCRM KiDoK peptide (Arabidopsis); experiment: BLI; Octet Red96; biotinylated SCRM KiDoK peptide (500 nM) loaded on streptavidin probes, MPK6 as analyte (150 nM and two-fold dilutions); 25 °C; 1x PBS, 2 % DMSO, 0.02 % Tween20, 0.1 % BSA; 1:1 model, Kd from steady-state analysis; without kC9

Chain of MPK6ΔNt (29–305) (Q39026 29-305, stated change not applied): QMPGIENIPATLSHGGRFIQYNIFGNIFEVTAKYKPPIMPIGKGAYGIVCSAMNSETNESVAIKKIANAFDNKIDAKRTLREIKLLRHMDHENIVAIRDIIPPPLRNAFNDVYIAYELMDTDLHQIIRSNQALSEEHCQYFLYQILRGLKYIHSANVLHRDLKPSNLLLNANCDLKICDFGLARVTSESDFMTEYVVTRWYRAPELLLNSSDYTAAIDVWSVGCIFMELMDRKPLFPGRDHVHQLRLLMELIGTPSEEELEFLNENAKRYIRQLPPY

MPK6ΔNt (29–305) (from UniProt Q39026 29-305) (domain or fragment)
Kd [1]: 43.4 nM | Kd [2]: 856 nM | Kd [3]: 1400 nM | Kd [4]: 40.1 nM
